The subject of data set [1] is Cc1cc(=O)oc2c(F)c(OP(=O)(O)O)c(F)cc12. The experiment in a line: purified protein, by the assay type.
Data set [2] relates to O=[N+]([O-])c1ccc(OP(=O)(O)O)cc1. The experiment in a line: purified protein, by the assay type.
The mark [3] stands for this setting: other: DiFMUP, 0.5 nM enzyme, pH 7.5, 30 °C, mean of 3 ± SD.
[4] abbreviates: other: pNPP, 25 mM HEPES pH 7.5, 30 °C, mean of 3 ± SD.

The Km is the concentration of substrate that gives half-maximal velocity. By kcat is commonly meant the number of substrate molecules converted per active site and unit of time at saturation. In general, kcat/Km refers to the turnover number divided by the Michaelis constant. As to “CgCdc14 (Colletotrichum gloeosporioides)”, in data set [1] (setting [3]), the Km is 0.078 ± 0.012 mM, the kcat turned out to be 7 s⁻¹ and the kcat/Km was 86000 ± 6100 M⁻¹ s⁻¹. Moreover, in data set [2] (setting [4]), the Km was 30 ± 4 mM, the kcat amounted to 0.6 ± 0.1 s⁻¹ and the kcat/Km came to 20 ± 2 M⁻¹ s⁻¹.
Take MoCdc14 (Pyricularia oryzae 70-15): the Km came to 0.044 ± 0.011 mM in data set [1] (pH 7.5, 30.0 °C) and 25 ± 1 mM in data set [2] (pH 7.5, 30.0 °C).

For the origin of these results see publication PMC7374715, “Conservation of Cdc14 phosphatase specificity in plant fungal pathogens: implications for antifungal development” (Scientific Reports, 2020).
